This note sets out measurements from US6399078.

The target in test [1] is cell surface receptors on glycanase treated PBMC. Nature of the test: saturation binding of 125I-RANTES-heparin complexes to glycanase treated activated human PBMC.
The target is the same in test [2]. Description: saturation binding of 125I-RANTES-heparin complexes to glycanase treated activated human PBMC, nonlinear curve fitting.
Test [3] shares this target. Description: saturation binding of 125I-RANTES-heparin complexes to glycanase treated activated human PBMC, gamma counting, nonlinear curve fitting after subtracting non-specific binding.
The target in test [4] is CCR5 (human) (UniProt P51681). Description: flow cytometry of the activated human PBMC with mAb 2D7. Background: Flow cytometry measures light scatter and fluorescence of single cells or particles in a stream.
UniProt P51681, sequence (P51681 whole entry): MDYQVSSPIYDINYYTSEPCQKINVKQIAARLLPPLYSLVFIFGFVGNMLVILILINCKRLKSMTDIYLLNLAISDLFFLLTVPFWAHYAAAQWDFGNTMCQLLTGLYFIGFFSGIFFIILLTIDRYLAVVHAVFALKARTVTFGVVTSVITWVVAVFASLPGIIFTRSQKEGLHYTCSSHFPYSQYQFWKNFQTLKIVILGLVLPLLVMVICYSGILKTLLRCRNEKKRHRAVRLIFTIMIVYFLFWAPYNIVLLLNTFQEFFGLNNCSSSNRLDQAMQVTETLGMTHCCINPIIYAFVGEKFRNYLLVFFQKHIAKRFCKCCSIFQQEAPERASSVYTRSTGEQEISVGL
Test [5] deals with CCR5 (human) (UniProt P51681). Nature of the test: glycanase treated PBMC preincubated with mAb 2D7, then 125I-RANTES-heparin complexes as labelled ligand, gamma counting; reference normal mouse IgG.

What is called Kd is a measure of binding affinity in units of concentration. Low readings indicate higher affinity, high ones lower affinity. Consider “125I-labeled RANTES-heparin complexes (from UniProt P13501 24-91) (ligand)”, for which, in test [1], the saturating concentration is > 1 nM. This substance also registered a Bmax (binding sites per cell) in test [2] of 900. Further, in test [3], the Kd is 1.5 nM.

Substance anti-CCR5 monoclonal antibody 2D7 registered a percent of cells expressing CCR5 (stained by 2D7) in test [4] of 100%. This substance also had a percent reduction of 125I-RANTES binding in test [5] of 40 percent.
